Consider 30 sequences from the nanobody polyreactivity screen of Harvey et al. (2022).

The nature of the data set: yeast display, Sf9 membrane polyspecificity reagent, FACS + sequencing; frameworks hold sequencing errors. The essentials:
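Nanobodies came from a synthetic yeast display library in Saccharomyces cerevisiae BJ5465, induced with galactose for 36–48 hours and stained for 1 hour at 4 °C with 10% biotinylated, detergent-solubilized Sf9 membrane reagent. Cells were enriched on streptavidin microbeads and then FACS-sorted, with low and high (top ~1%) gates set on anti-HA fluorescence for expression and streptavidin fluorescence for reagent binding. Each polyreactivity label reflects the gate a clone came from. Genes were amplified by colony PCR, sequenced by MiSeq 2 × 250 and filtered by CDR length.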
On to “QVQLVESGGGLVQAGGSLRLSCAASGSIFGLYAMGWYRQAPGKERELVAGITYSGGSTYYADSVKGRFTISRDNAKNTVYLQLNSLKPEDTAVYYCNTRYWRGWYAYYYWGQGTQVTVSS”, for which the “polyreactivity (PSR sort gate)” value is given as “high polyreactivity”.

“QVQLVESGGGLVQAGGSLRLSCAASGSIFGNNAMGWYRKAPGKERELVAAISSGGSTKYADSVKGRFTISRDNAKNTVYLQMNSLKPEDTAVYYCAKDSWSRAYSWATRVHWRYDYWGQGTQVTVSS”: the “polyreactivity (PSR sort gate)” value is on record as “low polyreactivity”. In the case of “QVQLVESGGGLVQAGGSLRLSCAASGSIFGNYAMGWYRQAPGKERELVAGISKSGGRTYYADSVKGRFTISRDNAKITVYLQMNRLKPEDTAVYYCNALVTRYQSLDRLGDYWGQGTQVTVSS”, the “polyreactivity (PSR sort gate)” value is on record as “high polyreactivity”. Take “QVQLVESGGGLVQAGGSLRLSCAASGSIFGPNAMGWYRQAPGKERELVAAITSGSSTKYADSVKGRFTISRDNAKNPVYLQMNSLKPEDTAVYYCAASGTTTWKYGYWGQGTQVTVSS”: the “polyreactivity (PSR sort gate)” value is reported as “low polyreactivity”. For the sequence “QVQLVESGGGLVQAGGSLRLSCAASGSIFGPYAMGWYRQAHGKERELVAAITISGGSTYYADSVKRRFTISRDNAKNTVYLQINSLKPEDTAVYYCAADYWVDYEYDYYWEYNYWGQGSQVTVSS”, the “polyreactivity (PSR sort gate)” value is given as “high polyreactivity”. “QVQLVESGGGLVQAGGSLRLSCAASGSIFGPYAMGWYRQAPGKERELVAAITWSGDSTYYADSVKGRFTISRDNAKNTVYLQMNSLKTEDTAVYYCAAETFIWGQGTQVTVSS”: the “polyreactivity (PSR sort gate)” value is “low polyreactivity”. On to “QVQLVESGGGLVQAGGSLRLSCAASGSIFGPYAMGWYRQAPGKERELVAAITWTGGRTYYADSVKGRFTISRDNAKNTVYLQMISLNPEDTAVYYCAADYSPSTWYLYYTLFYYWGQGTQVTVSS”, for which the “polyreactivity (PSR sort gate)” value is “low polyreactivity”. Consider “QVQLVESGGGLVQAGGSLRLSCAASGSIFGPYAMGWYRQAPGKERELVAGITRSVGSTYYADSVKGRFTISRDNAKNTVFLQMNSLKPEDTAVYYCNAKWLYSRWAGYDYWGQGTQVTVSS”, for which the “polyreactivity (PSR sort gate)” value is on record as “low polyreactivity”. Regarding “QVQLVESGGGLVQAGGSLRLSCAASGSIFGPYAMVWYRQAPGKERELVAAISSRGSSTYYADSVKGRFTISRDNAKNTVYLQMNSLKPEDTAVYYCAALYYVYGYDYWGQGTQVTVSS”, the “polyreactivity (PSR sort gate)” value is given as “high polyreactivity”. Under “QVQLVESGGGLVQAGGSLRLSCAASGSIFGQYVMGWYRQAPGKERELVAAITRRGGTTYYADSVKGRFTISRDNAKNTVYLQMNSLKPEDTAVYYCAARVRVPQTARLHEYWGQGTQVTVSS” stands “high polyreactivity”; under “QVQLVESGGGLVQAGGSLRLSCAASGSIFGRNAMGSSRQAPGKERELVAAITWSGDSTYYADSVKGRFTISRDNAKNTVYLLMNSLKPEDTAVYYCAAGTATDVASIGATKDYDYWGQGTQVTVSS”, “low polyreactivity”; under “QVQLVESGGGLVQAGGSLRLSCAASGSIFGRNAMGWYRQAPGKEREFVATITSRGGRTYYADSVKGRFTISRDNAKNTVYLQMNSLKPEDTAVYYCAADTYISTLKKYRLGDYWGQGTQVTVSS”, “low polyreactivity”. Consider “QVQLVESGGGLVQAGGSLRLSCAASGSIFGRNAMGWYRQAPGKERELVAAINSGGSTNYADSVKGRFTISRDNAKNTVYLQMNSLKPEDTAVYYCAARTYSSGRYYGYVAFYYWGQGTQVTVSS”, for which the “polyreactivity (PSR sort gate)” value is “high polyreactivity”.

As for “QVQLVESGGGLVQAGGSLRLSCAASGSIFGRNAMGWYRQAPGKERELVAVISKRSGNTYYADSVKGRFTISRDNAKNTVYLQLNSLKPEDTAVYYCNAVDQKLLRYDYWGQGTQVTVSS”, the “polyreactivity (PSR sort gate)” value is “high polyreactivity”. The result for “QVQLVESGGGLVQAGGSLRLSCAASGSIFGRNAMGWYRQEPGKERELVARISYIGGSTYYADSVKGRFTISRDNAKNTVYLQMNSLKPEDTAVYYCAKRYGFRYKRMDYWGQGTQVTVSS” reads “low polyreactivity”.

For the sequence “QVQLVESGGGLVQAGGSLRLSCAASGSIFGRNVMGWYRQAPGKERELVARITRGGSTNYADSVKGRFTISRDNAKNTVYLQMNRLQPEDTAVYYCAAGARQYRGVPDRYGYWGQGTQVTVSS”, the “polyreactivity (PSR sort gate)” value is recorded as “low polyreactivity”. As to “QVQLVESGGGLVQAGGSLRLSCAASGSIFGRYAMGLYRQAPGKERELVATISRTGGSTNYADSVKGRFTISRDNAKNTVSLQMNSLKPEDTAVYYCNAASVYANYYTYVDYYTEGFYYWGQGTQVTVSS”, the “polyreactivity (PSR sort gate)” value is on record as “low polyreactivity”. Take “QVQLVESGGGLVQAGGSLRLSCAASGSIFGRYAMGWYRQAPGKERELVAAISRTGVSTYYADSVKGRFTISRDNAKNTVYLQMNSLKPEDTAVYYCNAVRLSWQNTYYYWGQGTQVTVSS”: the “polyreactivity (PSR sort gate)” value was “high polyreactivity”. In the case of “QVQLVESGGGLVQAGGSLRLSCAASGSIFGRYAMGWYRQAPGKERELVAAISWNGGSTYYADSVKGRFTISRDNAKNTVYLQMNILKPEDTAVYYCAADSGYSGYYYWGQGTQVTVSS”, the “polyreactivity (PSR sort gate)” value was “high polyreactivity”. For the sequence “QVQLVESGGGLVQAGGSLRLSCAASGSIFGRYAMGWYRQAPGKERELVAAITRSGVSTYYADSVKGRFTISGDYAKNTVYLQMNSLKPEETAVYYCNAYYRIRSSPYGYYYWGEGTQVTVSS”, the “polyreactivity (PSR sort gate)” value is “high polyreactivity”. With “QVQLVESGGGLVQAGGSLRLSCAASGSIFGRYGAIGWYRQAPGKERELVAAINRSGGITYYADSVKGRFTISRDNAKNTVYLQMNSLKPEDTAVYYFNADAYYYSTSPRGAFDWPYDYWGQGTQVNVSS”, the “polyreactivity (PSR sort gate)” value was “low polyreactivity”. Consider “QVQLVESGGGLVQAGGSLRLSCAASGSIFGRYTMGWYRQAPGKERELVARIRSGGTTYYADSVKGRFTISRDNAKNTVYLQMNSLKPEDTAVYYCAAGRDARDYYSWGQGTQVTVSS”, for which the “polyreactivity (PSR sort gate)” value is given as “high polyreactivity”. On to “QVQLVESGGGLVQAGGSLRLSCAASGSIFGRYVKGWYRQAPGKERELVATISSGGSTYYADSVKGRFTISRDNAKNTVYFQMISLKPEDTAVYYCAASYSRFVDWIGDPGYDYWGQGTQVTVSS”, for which the “polyreactivity (PSR sort gate)” value is reported as “low polyreactivity”. As to “QVQLVESGGGLVQAGGSLRLSCAASGSIFGRYVKGWYRQAPGKERELVATISSGGSTYYADSVKGRFTISRDNAKNTVYLQMNSLKPEDTAVYYCAASYSRFVDWIGDPGYDYWGQGTQVTVSS”, the “polyreactivity (PSR sort gate)” value is “low polyreactivity”. For the sequence “QVQLVESGGGLVQAGGSLRLSCAASGSIFGRYVMGWYRQAPGKEREFVAAITYSGSSTYYADSVKGRFTISRDNAKNTVYLQMNSLKPEDTAVYYCNTYPRSFYWMGYWGQGTQVTVSS”, the “polyreactivity (PSR sort gate)” value is listed as “high polyreactivity”. For the sequence “QVQLVESGGGLVQAGGSLRLSCAASGSIFGSYAKGCYIQAPGKERELVAAITRAGSTNYADSVKGRFTISRDNGKNTVYLQMNSLKPEDTAVYYCNATGKSTYVLSPVPGAYDYWGQGTQVTVSS”, the “polyreactivity (PSR sort gate)” value is on record as “low polyreactivity”. Regarding “QVQLVESGGGLVQAGGSLRLSCAASGSIFGSYAMGWYRQAPGKEMELVAAISGSGGRTYYADSVKGRFTISRDNAKNTVYLKMNSLKPEDTAVYYCSAAYPRVTYKYGYYWGQGTQVTVSS”, the “polyreactivity (PSR sort gate)” value is given as “high polyreactivity”. The result for “QVQLVESGGGLVQAGGSLRLSCAASGSIFGSYAMGWYRQAPGKERALVAAMSRSGITYYADSVKGRFTISRDNAKNTVYLQMNSLKPEDTAVYYCNADVSWWGYHYDYWGQGTQVTVLS” reads “high polyreactivity”; that for “QVQLVESGGGLVQAGGSLRLSCAASGSIFGSYAMGWYRQAPGKERELVAAIRWRGGSTYYADSVKGRFTISRDNAKNTVYLQMNSLKPEDTAVYYCNAVTHYPVWVSGVGYDYWGQGTQVTVSS”, “high polyreactivity”; that for “QVQLVESGGGLVQAGGSLRLSCAASGSIFGSYAMGWYRQAPGKERELVAAISYRGGRTYYADSVKGRFTISRDNAKNSVYLQMNSLKPEDTAVYYCNARARNSPPYDYWGQGTQVTVSS”, “high polyreactivity”.
